According to article PMC2936275 (Biochemistry, 2010):
Values joined by “and” are separate entries in the source; they are usually repeats but may differ in a detail not shown here. Equal entries are not always repeated.

Molecular target: ONE-GC fragment aa 836-1110 (UniProt P51839 836-1110)
Test: SPR

ONE-GC fragment aa 836-1110, sequence (P51839 836-1110): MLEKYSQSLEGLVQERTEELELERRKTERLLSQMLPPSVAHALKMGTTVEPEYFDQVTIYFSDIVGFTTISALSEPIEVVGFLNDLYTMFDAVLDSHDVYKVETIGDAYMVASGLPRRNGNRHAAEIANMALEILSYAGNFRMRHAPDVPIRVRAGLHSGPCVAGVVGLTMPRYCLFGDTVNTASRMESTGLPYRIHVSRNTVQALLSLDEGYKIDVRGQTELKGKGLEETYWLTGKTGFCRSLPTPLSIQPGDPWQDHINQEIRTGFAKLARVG

EC50: 500 nM
Kd: 650 nM and 670 nM
B1: GCAP1 (guanylate cyclase activating protein 1), purified recombinant (natural protein, UniProt P46065 1-205, looked up)
chain: MGNIMDGKSVEELSSTECHQWYKKFMTECPSGQLTLYEFRQFFGLKNLSPWASQYVEQMFETFDFNKDGYIDFMEYVAALSLVLKGKVEQKLRWYFKLYDVDGNGCIDRDELLTIIRAIRAINPCSDSTMTAEEFTDTVFSKIDVNGDGELSLEEFMEGVQKDQMLLDTLTRSLDLTRIVRRLQNGEQDEEGASGRETEAAEADG
